This is an account of results in the DeepSol protein solubility set.

A short description of the series: soluble on expression in E. coli; label from the status in PepcDB or PDB records.
On to “MSADVVENGRAYNALWWAKVQSGGPQKVPADTPAVAGLARAVEPDGSGLWMLPTVPDGAGHGVLEELGAPPVAVEMPNETARVLAICVACCWTDRDASTWPGVTGTLAQVKAVYAGMRGRAEQSSDLTLIIGSLRRLHATHWLLWNEKAGEVRLGPRTITWSPSDLATLREICRVLPDPPPAVLVARAPEPTPDPLPVAASADGPAPSSDQAAASALPSPAAPPADGAPGPTPDPSPSLTSTSPAPSAPARSTEQSG”, for which the “soluble on expression in E. coli” value is on record as “not soluble”. Take “MGSDKIHHHHHHMTRSGIGIRTAQQQSGRLTGQIHVYDGAGKGKSQAALGVVLRSIGLGIRDQWQSRVLLLRFLKGPGRTYDEDAAIEALQQGFPHLIDQVRTGRAEFFGPDAISRFDRQEARRGWDIAKGAIVSGLYSVIVLDELNPILDLGLLPVDEVVQTLRQKPPQVEVIATGRGAPPQLLEIADLHSEMIAHANPAVAPVGMEGIEIYTGEGKGKSTSALGKALQAIGRGIGQDLSHRVLILQWLKGGSGYTEDAAIQALRQSYPHLVDHQRSGRDAIVWRGQQQEIDYIEAERAWEIARAAIASGLYKTIILDELNPTVDLELLPEEPILQALLRKPRDTEVIITGRCKQIPAYFHLASVHSEMVCHKHYAERGIELKRGVDY”: the “soluble on expression in E. coli” value is “not soluble”. The entry for “MLTRDFLQKADCRTSFGCIEETLLLTPQQRADSLDRMLALRPNSCPVWVFGYGSLMWNPVFDAEETCLATLTGWQRAFCLRLTIGRGTVTQPGRMLALQPGGQTTGLAFRLPKTSLREDLELLWKREMLTGCYRPLWCELHRKNGAPLTALVFVSEPEHPLNENDTCIQSVAPLIARASGPLGTNAQYLFALEQELKNHGTEDESVSELAQRVRTLQQSCPAPAGGGQLEHHHHHH” is “not soluble”; for “MGSDKIHHHHHHMTNPTLAPQSDEYQQIHNGIVQLLDTARTQTVRSINTIMTATYWEMGRRIVEFEQGGEARAAYGEQLIDRLSQDLSQRYKRGFSASNLWQFKKFYLYFQKIEILQTVSGESLHLAQLAKSFPLPWSAYVRLLSVKNPNARTFYEKETLRNGWSVRQLDRQIATQFYERTLLSHDKSAMLQQPAPAEPNVLPEQAIRDPFILEFLNLKDEYSESDLEDALLSHLMDFMLELGDDFAFVGRQRRLRIDDSWFRVDLLFFHRRLRCLLLVDLKVGKFGYADAGQMNMYLNYAKEHWTMPGENPPVGLVLCAGKGAGEAHYALTGLPNTIMASEYKVQLPDEKLLTDELIRSQTMLETQLTRGGSLTTEKN” it is “not soluble”; for “MRNWKVTGKYPQLDGTGAVASTHIIIAAEDGAVIPQLIKQDLTSTNDTEIIKAALEEFKKSEYVEIAMGEAVQKVDDLEKISQETAKTAKTAQTAAGLAKVSAERTQRMINLQTIHVLTSGGNVEPDIYKGMLELIEPAKQGEYQAYDVFTVVDESHEDQAVEGNLVFVHVNEPFTYEAQTLKDLESEDKVTVIKYADLVKQD” it is “not soluble”. The entry for “MSLSIKLVAIDIDGTLLNSQHKITPRVKEALQKANEQGVRIVLCTGRPLPGVKEQLDELALYGENDFVITYNGSLVQATKDNTIISRYTLSYEDFLEIEMYSRKVGAHLHTIDDSAIYTANRNIGKYTIHEASLVNMPLKYRTVDEMTPEMNIIKMMMIDEPEVLDPAIAKLPLHFTEKYTTVKSTPFYYEIMNKNASKGNALAKLADHLGLNKDEVMAIGDNENDLSMIDYAGIGVAMGNATENVKTIADVHTTSNDEDGVAQIIEKMVLIEGHHHHHH” is “soluble”; for “MVLPLSLLKTAQNHPMLVELKNGETYNGHLKACDSWMNIHLVDVIFTSKDGDKFFKMSEAYVRGSTIKYLRIPETVVDLVKTEVNEVRRQQQREQSRGRGGGRGGRGGHRGGGGNRGGRGGAR” it is “not soluble”; for “MGRMIDGDWRTEADMNEHSDDGAFERDTTSFRHWVGDDVPPAAGRYHLYVSYACPWAHRTLLVRALLGLEDAISVSVVDPVRYDQGWTFDPEKPGCTPDHVFGGTHLRDVYTEADPEYTGRVTVPVLYDTDADTIVNNESEEIMRMLDVAFDDHAARDVDLYPEGYRDEVDRLIEDIYDPINNGVYRAGFADSQRAYDNAVDDLFEALAHYDDVLAEQRYLAGDVLTEADVAMFTTLYRFDEVYHTHFKCNRKRISDYDNLWPYLRELCQLPGVADTLYMEHVKQHYYRSHGHLNPKRLVPTGPNPAFFAPHDRDQLEHHHHHH” it is “not soluble”. The entry for “MGSDKIHHHHHHAQNRNTSICRLGFTYDISQSKNWGNNKPVIKSIIPYSSAEQAGIKKYDVIEEINGVPVTEVSVDEIPQLLNPAGRNDVLLTISNLSSPSKQVLVKKDCKKSNAITEDQLASAYAMYSLETTNEQEFVCPFKTTVTSDGVDFGNFKTFAFSTIDENNRKLETVINECIENELTKKGLTVDIAKPDLLIQTFYFFDKNPNYLGANKVLVEKEPTYRYNFSHSKMEKFPFLNYAAAEAEAEYLLQFGIRIIDQKDIPGRVLWECEANELLEDSYRLDEYARVHVPLMCMQYPYTKYGRNVPFKVSKKTYNYTGISYDIDKLDQVVDVDRNSPAYAAGIRPRDIIEKIGRHKMDHSAEEFSSAYKRFITNTMQYRDPKTMFTDANGFKYCMFWDVFKYPQIADASQSSDYLPAFSYLYYFAPYINPSGNNACTFNIKRGKTKLEVIIRPTIRSEVTVEIK” is “not soluble”; for “GSHSLRYFDIAVSRPGLGEPRYISVGYVDDTEFARYDSDAENRRYQPRARWMEREGPEYWERNTPIYKGKEQTFRVNLRTLRGYYNQSEGGSHTIQEMYGCDVGSDGSLLRGYEQFAYDGRDYIALNEDLKTWTAADFAARISRNKLERDGFADLHRAYLEGECVESLRRYLELGKETLLRSDPPKAHVTLHPRPEGDVTLRCWALGFYPADITLTWQLNGEDLTQDMELVETRPAGDGTFQKWASVVVPLGKEQNYTCRVEHEGLPKPLSQRWEPLEHHHHHH” it is “soluble”. “MAGAAAAVAAGAAAGAAAAAVSVAAPGRASAPPPPPPVYCVCRQPYDVNRFMIECDICKDWFHGSCVGVEEHHAVDIDLYHCPNCAVLHGSSLMKKRRNWHRHDYTEIDDGSKPVQAGTRTFIKELRSRVFPSADEIIIKMHGSQLTQRYLEKHGFDVPIMVPKLDDLGLRLPSPTFSVMDVERYVGGDKVIDVIDVARQADSKMTLHNYVKYFMNPNRPKVLNVISLEFSDTKMSELVEVPDIAKKLSWVENYWPDDSVFPKPFVQKYCLMGVQDSYTDFHIDFGGTSVWYHVLWGEKIFYLIKPTDENLARYESWSSSVTQSEVFFGDKVDKCYKCVVKQGHTLFVPTGWIHAVLTSQDCMAFGGNFLHNLNIGMQLRCYEMEKRLKTPDLFKFPFFEAICWFVAKNLLETLKELREDGFQPQTYLVQGVKALHTALKLWMKKELVSEHAFEIPDNVRPGHLIKELSKVIRAIEEENGKPVKSQGI”: the “soluble on expression in E. coli” value was “soluble”. In the case of “MGHHHHHHSHMAAPEAEVLSSAAVPDLEWYEKSEETHASQIELLETSSTQEPLNASEAFCPRDCMVPVVFPGPVSQEGCCQFTCELLKHIMYQRQQLPLPYEQLKHFYRKPSPQAEEMLKKKPRATTEVSSRKCQQALAELESVLSHLEDFFARTLVPRVLILLGGNALSPKEFYELDLSLLAPYSVDQSLSTAACLRRLFRAIFMADAFSELQAPPLMGTVVMAQGHRNCGEDWFRPKLNYRVPSRGHKLTVTLSCGRPSIRTTAWEDYIWFQAPVTFKGFRE”, the “soluble on expression in E. coli” value was “not soluble”. The entry for “MGSDKIHHHHHHMITTEAWVLYAGPEQTKKHAPVPGELRRETFQFAGLEDDEALVEPLYGSWEANLDHALSRNPVDICRQRGEEKIVLGNGALVRVVDRGRGAKHPEIGEICMVMPFGKRDQYGFAELVYAYDAPGTIGVMARRTKIRADNLVPVPKGSRHSLLQWATYGRYFTAWDNWKVASKCWRAQLPDVDPADYLVFGWGGGTTLAELQLAKREGFRVAMTASGDKRLADIEKLGITPVDRRRFPHLAYDEERYRSDPEYQAHYRASESAFAEIIGELSGGRGVAIFLDNLGGALYRATMRVIGRTGIVATVGWKTGMRLWNLRATECINRRLHIHTHAWRYDDSEAIRDFQESSDWVGPEPTEIYGFDDVPALASDYVNGKIKTYFPLYQVNPV” is “not soluble”; for “MIEITFLGGGGGRFVTITQVRATGGFFIKASKNIYVDPGPGALVRMWRYKIDPRKVDVLFISHRHTDHCNDAEVLVEGMTYGVTKKRGTLIGSKSVVHGDENHTPALSKYHLDALEEVHAPNPGDRFKIGEDEMIITPSLHSDPTTIGFRLKTSYGDISYIPDTEYFEELVKWHDGARVIIAAVTRPRDMRIPFHLSSEDAVYLLKSMKQKPEVFIMTHAGMKMHFAGPYKEAQFIQNLTGVKTYVAKEGFKVSIGKEISVKTLRPARFVLEHHHHHH” it is “soluble”. The entry for “MANLFRNLFGHKKSHSKGDEDHENMDRDTSRRSIRAAPSSSSRSMARGARFQDDSMLPPTAAYHTQNASARVRRGPKSCPGEYIEEEAPSSSRSFNVDSFRREPRDQRRRSSNMVQSTSKMTSSSSSRAAPRYQQWETSEYGSENTSPIGYHRHYQHRRHHPEEEEDEEEDEEEVYKKSMRYQDLKKKIRAHYEERLFNYERTQRNDHRQIKELEKEKDDLVKMLLQSNAKLDKEKKKTEYFKRKWQEAEHKIPFGNPIMPQFGFPPATPQFPQMFQFQPNSGGSAQRYSFMGAPMHPISSSNTPTTSGMDTTHGGAGESLVPASDVSYLAPLVPAPPTLPLLELNTSQGPSTSGISQQNPQQSSSSFFHDDDEDQDETKNFRDEEIESPRCHGSTSTLKNDEEAAELSDFLSKSNLTTLEEGKDSGFSTTPDDAKEPEKVAAN” is “not soluble”; for “MGSDKIHHHHHHMRATLAAAARDLNAAARFGADTACREGYHPVMLNTIIHGTPTDQPPLLIAHGLYGSGRNWGVIAKRLADERQVIAVDMRNHGLSPKTQSHSYVDLAEDLAEVIAAHGGRMDVVGHSMGGKAAMMLALRHPEAVNRLVVADIAPVSYQHTQAHFITAMRSVDLARVTRRSDAQEQLAAAGVDAMLQSFFTQSLDVENKSWRLNLDTLEREMPHILSFPEVETHWDGTALFLTGAHSDYVLPEHRPQIKRLFPAARFAKIPGAGHWLHAEKPREFEATVRGFLNA” it is “not soluble”; for “MPEMADVMQTQAGDAGAFRHFDLSRVPTPCFVVDEVAIERNLKILRDISDRSGAHVLSALKAFSMFTLAPLVRQYLGGTCASGIYEARLGREEYGGEVATFCAGYKEQDIDEILSLSNHIIFNSPAQKDRFLSRAQAAGVQVGLRINPEHSEGEIAKYDPCAPCSRLGTPVSLLTPETLKGVDGLHMHTLCEQGFEPLLRTWAAVEPKLAPYLPGLKWLNFGGGHHITRADYDRDALIDFLKSLRARHGLDVYLEPGEAVALDAGILVGEILDLPSNGMDLAITDISATCHMPDVIEAPYRPALMDEADSGHTYRLGGPSCLAGDVIGDYTWDQPLTIGQRFAFLDQAHYSMVKTNTFNGVPLPTIALWNSKTDALRIVRQFDYSDFKDRLS” it is “not soluble”. Regarding “MGRMSEKLGQDIKQSIFKVPPLIQKSDIDPEHCRVSAQLDDNVDDNIPLRVMLLLMDEVFDLKDRNQWLRRNIKNLLQQLIKATYGDTINRKIVDHVDNMTSPEQVSDYVKRFRDSYWPNGILAETPPRRDKNLRMRTRVAAKTTLLGIMPDELKHIIGADTTRKGILRVFEMFQHQPLNRRLVYVFLEGFLETLFPQYKFPELFEKLHSRSPRVLKYSHKLRSLQKR”, the “soluble on expression in E. coli” value is “not soluble”.
